Measurements as given in US20230257472A1 (JIANGSU HENGRUI MEDICINE, published 2023).
Changes are numbered by the printed parent chain.

T1: human CD70 on cells (CD70-positive 786-O cells, Raji cells, CHO-S cells expressing human full-length CD70, … (human, UniProt P32970 1-193))
T1 construct: whole, on cells; Endogenous on 786-O, Raji and U266 cells; transfected full-length human CD70 on CHO-S cells; also called CD70-positive cells
T1 sequence (looked up): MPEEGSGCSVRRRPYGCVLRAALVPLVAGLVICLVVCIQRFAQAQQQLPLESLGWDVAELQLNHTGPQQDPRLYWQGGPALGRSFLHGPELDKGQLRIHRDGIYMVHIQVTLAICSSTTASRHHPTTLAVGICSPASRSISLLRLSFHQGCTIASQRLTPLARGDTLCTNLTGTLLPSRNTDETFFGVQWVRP

T2: His-tagged CD70 protein extracellular domain (His-TNC-CD70) (human)
T2 construct: Expressed in 293 cells; also called human His-TNC-CD70 antigen; human CD70 antigen
T2 chain: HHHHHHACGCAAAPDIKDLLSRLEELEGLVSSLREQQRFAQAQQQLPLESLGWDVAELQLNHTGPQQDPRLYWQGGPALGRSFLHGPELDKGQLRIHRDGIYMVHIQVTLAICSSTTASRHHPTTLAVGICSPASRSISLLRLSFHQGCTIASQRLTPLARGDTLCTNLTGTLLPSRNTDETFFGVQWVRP

B1: huF4011 (afuc) (antibody, human IgG1, kappa, V domains shown)
VH: EVQLVQSGAEVKKPGSSVKVSCKASGDTFPRYNMHWVRQAPGQGLEWMGAIFPGTGETSYNQNFKGRVTLTADKSTSTAYMELSSLRSEDTAVYYCARNSYYDYAWFTYWGQGTLVTVSS
VL: DIVMTQSPDSLAVSLGERATINCRASKSVSSSGYSFMHWYQQKPGQPPKLLISLADNLESGVPDRFSGSGSGTDFTLTISSLQAEDVAVYYCQHSREFPPTFGQGTKLEIKR
modifications: non-fucosylated (heavy chain not modified by fucosylation)
notes: also called non-fucosylated antibody of huF4011
B2: huB1010 (afuc) (antibody, human IgG1, kappa, V domains shown)
VH: EVQMVQSGAEVKKPGASVKVSCKASGYTFTTYNIHWVRQAPGQGLEWMGDIYPGTGDASYNQKFRDRVTMTRDTSTSTVYMELSSLRSEDTAVYYCATFSRFDGWFAYWGQGTLVTVSS
VL: B1 VL with K27R, S31T, F36Y, S53Y, F98L, P100Y, Q104G, L108V
modifications: non-fucosylated (heavy chain not modified by fucosylation)
notes: also called non-fucosylated antibody of huB1010
B3: 41D12 (positive control antibody, see WO2012123586) (antibody, human IgG1, lambda, V domains shown)
VH: EVQLVESGGGLVQPGGSLRLSCAASGFTFSVYYMNWVRQAPGKGLEWVSDINNEGGTTYYADSVKGRFTISRDNSKNSLYLQMNSLRAEDTAVYYCARDAGYSNHVPIFDSWGQGTLVTVSS
VL: QAVVTQEPSLTVSPGGTVTLTCGLKSGSVTSDNFPTWYQQTPGQAPRLLIYNTNTRHSGVPDRFSGSILGNKAALTITGAQADDEAEYFCALFISNPSVEFGGGTQLTVLG
B4: 41D12 (afuc) (antibody, human IgG1, lambda, V domains shown)
VH: B3 VH
VL: B3 VL
modifications: non-fucosylated (heavy chain not modified by fucosylation)
notes: also called non-fucosylated antibody of 41D12
B5: huB7002 (afuc) (antibody, human IgG1, kappa, V domains shown)
VH: EVQLVQSGSELKKPGASVKVSCKASGYTFTNYGMNWVRQAPGQGLEWMGWINTYTGEPTYADEFKGRFVFSLDTSVSTAYLQISSLKAEDTAVYYCARGDSFTTEILRNWYFDVWGQGTTVTVSS
VL: DIQMTQSPSSLSASVGDRVTITCGASENIYGALNWYQQKPGKVPKLLIYGATNLADGVPSRFSGSGSGTDFTLTISSLQPEDVATYYCQNVLSTPWTFGGGTKVEIKR
modifications: non-fucosylated (heavy chain not modified by fucosylation)
notes: also called non-fucosylated antibody of huB7002
B6: huF4027 (antibody, human IgG1, kappa, V domains shown)
VH: B1 VH with T55N
VL: B1 VL with S53Y, D56S
notes: Humanized IgG1
B7: huB1026 (antibody, human IgG1, kappa, V domains shown)
VH: B2 VH with T55N
VL: B1 VL with K27R, S31T, F36Y, S53Y, D56S, F98L, P100Y, Q104G, L108V
notes: Humanized IgG1
B8: huF4009 (antibody, human IgG1, kappa, V domains shown)
VH: B1 VH
VL: B1 VL with S53Y
notes: Humanized IgG1
B9: huF4025 (antibody, human IgG1, kappa, V domains shown)
VH: B1 VH with D27G, P30S, T55N, L70I
VL: B1 VL with S53Y, D56S
notes: Humanized IgG1
B10: huF4028 (antibody, human IgG1, kappa, V domains shown)
VH: B1 VH with V37L, R38K, T55N
VL: B1 VL with S53Y, D56S
notes: Humanized IgG1
B11: huB1038 (antibody, human IgG1, kappa, V domains shown)
VH: B2 VH with T55N
VL: DIVMSQSPDSLAVSLGERATINCRASRSVSTSGYSYMHWYQQKPGQPPKLLIYLASNLESGVPDRFSGSGSGTNFTLTISSLQAEDVAVYYCQHSRELPYTFGGGTKVEIKR
notes: Humanized IgG1
B12: huB1025 (antibody, human IgG1, kappa, V domains shown)
VH: B2 VH with M4L, T55N, T98R
VL: B11 VL with S5T, N74D
notes: Humanized IgG1
B13: huB1037 (antibody, human IgG1, kappa, V domains shown)
VH: B2 VH with M4L, T55N, T98R
VL: B11 VL
notes: Humanized IgG1
B14: huF4026 (antibody, human IgG1, kappa, V domains shown)
VH: B1 VH with T55N, L70I
VL: B1 VL with S53Y, D56S
notes: Humanized IgG1
B15: CHB1 (chimeric antibody of B1) (antibody, human IgG1, kappa, V domains shown)
VH: QVQMQQSGAELVKPGASVMMSCKASGYTFTTYNIHWIKQTPGQGLEWIGDIYPGNGDASYNQKFRDRATLTADRSSSTAYLQLSSLTSEDSAIYYCATFSRFDGWFAYWGQGTLVTVSA
VL: DIVMSQSPASLAVSLGQRATISCRASRSVSTSGYSYMHWYQQKPGQPPKLLIYLASNLESGVPARFSGSGSGTNFTLNIHPVEEEDAATYYCQHSRELPYTFGGGTKLEIKR
notes: Murine variable regions on human IgG1 / human light chain constant regions
B16: huB7020 (antibody, human IgG1, kappa, V domains shown)
VH: B5 VH
VL: B5 VL with Q38R, V43S, T69R, D70Q, F71Y
notes: Humanized IgG1
B17: huB7022 (antibody, human IgG1, kappa, V domains shown)
VH: B5 VH with V2I, A24T, D73E
VL: B5 VL with Q38R, V43S, T69R, D70Q, F71Y
notes: Humanized IgG1
B18: huB7024 (antibody, human IgG1, kappa, V domains shown)
VH: B5 VH with V2I, A24T, E46K, D73E, S84N
VL: B5 VL with Q38R, V43S, T69R, D70Q, F71Y
notes: Humanized IgG1
B19: CHF4 (chimeric antibody of F4) (antibody, human IgG1, kappa, V domains shown)
VH: QVQLKQSGAELVKPGASVKMSCKASGDTFPRYNMHWLKQTPGQGLEWIGAIFPGNGETSYNQNFKGKATLTADKSSSTAYMQLNSLTSEDSAVYYCARNSYYDYAWFTYWGQGTLVTVSA
VL: DIVMTQSPASLDVSLGQRATISCRASKSVSSSGYSFMHWYQQKPGQPPKLLISLASNLESGVPARFSGSGSGTDFTLTIYPVEEEDAATYYCQHSREFPPTFGSGTKLEIKR
notes: as for B15

Target: T1, human CD70 on cells (CD70-positive …)
Test: flow cytometry on CD70-positive 786-O cells, Alexa Fluor 488 goat anti-human (H+L) detection
Method: (§1) 786-O cells (ATCC, CRL-1932) or Raji cells (ATCC, CCL-86) at 1×10⁶ cells/mL were blocked with 1% BSA PBS buffer, followed by the addition of diluted anti-CD70 antibody samples at different concentrations were added, and the mixture was incubated for 1 h. After the plate was washed twice, Alexa Fluor 488-goat anti-human (H+L) antibody (Invitrogen, CAT #A 11013) was added, and the mixture was incubated for 1 h. After the plate was washed twice, fluorescence signals were read using a flow cytometer.

EC50 (read off the curve) [µg/mL]	Binder
~0.02	B1
~0.02	B2
~0.03	B3
~0.03	B4

Target: T1, human CD70 on cells (CD70-positive …)
Test: flow cytometry competition on CHO-S cells expressing human full-length CD70; blocked ligand: biotin-labeled CD27-Fc, Alexa Fluor 488 streptavidin detection
Method: The cell-blocking activity of the anti-CD70 antibodies was assayed by flow cytometry. CHO-S cells expressing human full-length CD70 (Invitrogen, R80007) at 1×10⁶ cells/mL were blocked with 1% BSA PBS buffer, followed by the addition with diluted anti-CD70 antibody samples at different concentrations and biotin-labeled CD27-Fc (set forth in SEQ ID NO: 84), and the mixture was incubated for 1 h. After the plate was washed twice, Alexa Fluor 488-streptavidin (Invitrogen, CAT #S11223) was added, and the mixture was incubated for 1 h. After the plate was washed twice, fluorescence signals were read using a flow cytometer.

IC50 (read off the curve) [µg/mL]	Binder
~0.3	B1
~0.3	B2
~0.4	B5

Target: T2, His-tagged CD70 protein extracellular …
Test: SPR Biacore T200, antibody captured by anti-human Fc, His-TNC-CD70 in flow, 1:1 model
Method: The affinity of the chimeric and humanized antibodies of the present disclosure for the human CD70 antigen was tested using a Biacore instrument. The procedures are as follows:
The human Fc capture molecules were covalently coupled to a CM5 biosensor chip (CAT #BR-1005-30, GE) according to the method described in the instructions of the human Fc capture kit (CAT #BR-1008-39, GE) for affinity capture of the antibodies to be tested. Then, a human His-TNC-CD70 antigen (set forth in SEQ ID NO: 1) flowed through the surface of the chip, and the reaction signal was detected in real time using a Biacore T200 instrument to obtain association and dissociation curves. After the dissociation was completed for each cycle, the biochip was washed and regenerated with a regeneration solution configured in the human antibody capture kit (GE). Data were fitted using a 1:1 model.

Kd [nM]	koff [s⁻¹]	kon [M⁻¹ s⁻¹]	Binder
0.0335	9.13e-05	2.73e+06	B6
0.0503	9.62e-05	1.91e+06	B7
0.0455	0.000114	2.51e+06	B8
0.0403	8.68e-05	2.15e+06	B9
0.0412	0.000106	2.56e+06	B10
0.0561	0.000101	1.8e+06	B11
0.0462	0.000154	3.33e+06	B12
0.0407	0.00016	3.93e+06	B13
0.0392	9.56e-05	2.44e+06	B14
0.0334	7.54e-05	2.26e+06	B15
0.0276	0.000159	5.76e+06	B16
0.0442	0.000195	4.41e+06	B17
0.0464	0.000205	4.41e+06	B18
0.0375	8.37e-05	2.23e+06	B19

Target: T1, human CD70 on cells (CD70-positive …)
Test: cell-based or functional assay

IC50 (ng/mL), inhibition of IL-8 secretion mediated by CD70/CD27 binding (U266 cells + HT1080/CD27 cells) [ng/mL]	Imax (%), maximum inhibition rate of IL-8 secretion from CD27 cells [%]	Binder
13	92.3	B1
19.8	91.7	B5
23.3	70.9	B3
24.2	71.1	B4

Target: T1, human CD70 on cells (CD70-positive …)
Test: flow cytometry on CD70-positive Raji cells, Alexa Fluor 488 goat anti-human (H+L) detection
Method: as §1

EC50 (read off the curve) [µg/mL]	Binder
~0.02	B1
~0.02	B2
~0.01	B3
~0.04	B4
